Data taken from publication PMC9800336, “Exploration of the cysteine reactivity of human inducible Hsp70 and cognate Hsc70” (The Journal of Biological Chemistry, 2022).
Ends that are not written are not given here. * marks the point of attachment. FITC = O=C1OC2(c3ccc(O)cc3Oc3cc(O)ccc32)c2ccc(NC(=S)*)cc21

Key:
Settings in all cases: both partners purified
WT hHsp70 (human HspA1A) = biological target: T1, WT hHsp70 (human HspA1A) (human, UniProt P0DMV8 1-641); assay: fluorescence polarisation; kinetic; 20 nM FAR mixed with 10 μM hHsp70 in the presence of 1 mM ADP, RT, FP recorded against time; diamide or diamide with GSH added at 60 min, DTT at 120 min
T1 construct: human HspA1A (hHsp70), UniProtKB P0DMV8, full length; also called HspA1A/B; human inducible Hsp70

[1] = biological target: T2, hHsp70-C17/C574/C603 (hHsp70 C267S/C306S), untreated control (human, UniProt P0DMV8 1-641, C267S | C306S); assay: fluorescence polarisation; steady state; increasing concentrations of Hsp70 with 20 nM FAR peptide, 60-min incubation, RT, buffer B (50 mM Tris-HCl pH 7.5, 100 mM KCl, 5 mM MgCl2); single site-binding model
T2 construct: human HspA1A (hHsp70), UniProtKB P0DMV8, full length with C267S/C306S; also called unmodified form

[2] = biological target: T3, disulfide-bonded hHsp70-C17/C574/C603 (human, UniProt P0DMV8 1-641, C267S | C306S, intramolecular disulfide bond between Cys574 and Cys603); assay: as above
T3 construct: human HspA1A (hHsp70), UniProtKB P0DMV8, full length with C267S/C306S; also called -S-S-; disulfide-bonded form of full length hHsp70

Measured: binding result

T1 sequence (P0DMV8 whole entry): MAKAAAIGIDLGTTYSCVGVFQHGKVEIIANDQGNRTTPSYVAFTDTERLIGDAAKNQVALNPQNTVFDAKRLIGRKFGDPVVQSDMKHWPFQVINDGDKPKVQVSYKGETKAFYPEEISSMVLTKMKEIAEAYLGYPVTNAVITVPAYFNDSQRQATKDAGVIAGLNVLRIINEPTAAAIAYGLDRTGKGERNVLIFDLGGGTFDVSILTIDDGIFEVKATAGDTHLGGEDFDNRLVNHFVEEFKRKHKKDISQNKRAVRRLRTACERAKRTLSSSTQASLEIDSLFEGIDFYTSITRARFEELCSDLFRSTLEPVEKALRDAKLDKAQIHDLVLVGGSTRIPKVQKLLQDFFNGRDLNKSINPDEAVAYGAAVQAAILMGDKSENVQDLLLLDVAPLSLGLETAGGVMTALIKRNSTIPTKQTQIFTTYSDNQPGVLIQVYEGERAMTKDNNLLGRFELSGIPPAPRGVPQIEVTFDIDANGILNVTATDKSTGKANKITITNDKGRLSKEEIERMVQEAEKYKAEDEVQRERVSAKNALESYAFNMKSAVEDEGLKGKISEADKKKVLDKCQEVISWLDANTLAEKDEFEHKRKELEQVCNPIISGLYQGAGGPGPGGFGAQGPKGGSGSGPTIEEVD
T2 sequence (P0DMV8 whole entry C267S/C306S): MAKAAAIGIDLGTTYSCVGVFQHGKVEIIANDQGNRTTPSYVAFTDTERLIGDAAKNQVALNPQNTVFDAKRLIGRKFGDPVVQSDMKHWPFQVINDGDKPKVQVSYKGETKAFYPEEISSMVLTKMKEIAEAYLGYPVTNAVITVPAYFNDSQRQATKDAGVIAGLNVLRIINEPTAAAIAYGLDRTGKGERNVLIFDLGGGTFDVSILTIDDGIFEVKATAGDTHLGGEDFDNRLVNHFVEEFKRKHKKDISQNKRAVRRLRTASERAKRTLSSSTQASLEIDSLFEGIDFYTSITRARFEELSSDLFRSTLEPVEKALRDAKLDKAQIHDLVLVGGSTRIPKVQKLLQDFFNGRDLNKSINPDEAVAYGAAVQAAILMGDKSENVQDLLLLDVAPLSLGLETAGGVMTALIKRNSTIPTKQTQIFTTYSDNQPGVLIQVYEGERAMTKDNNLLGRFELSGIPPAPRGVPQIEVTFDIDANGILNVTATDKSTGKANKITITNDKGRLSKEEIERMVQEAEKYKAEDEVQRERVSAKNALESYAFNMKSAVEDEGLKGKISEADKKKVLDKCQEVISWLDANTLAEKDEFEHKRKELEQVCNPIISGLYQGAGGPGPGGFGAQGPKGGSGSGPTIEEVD
T3 sequence (P0DMV8 whole entry C267S/C306S): as above

B1: FITC-ALLLSAPRR peptide (peptide)
peptide: {FITC}-ALLLSAPRR
notes: fluorescently labelled model substrate peptide of Hsp70; also called FAR; FAR peptide
binds: all assays above
